Source: patent publication US8697386B2, “Methods and compositions for modulating hepsin activation of macrophage-stimulating protein” (Genentech, Inc., priority 2009, dated 2014)

Experiments:
[1] = biological target: T1, cell surface expressed hepsin in LnCap-34 cells (Homo sapiens, UniProt P05981); test: Pro-MSP activation by cell surface expressed hepsin in LnCap-34 cells; type: cell-based; settings: 1 μM inhibitor, 15 minutes preincubation, 125I-pro-MSP 25 μg/ml, 3 hours, 37° C.
T1 construct: expressed in transfected cells; host or cells: LnCaP-34 cells
Procedure: Confluent LnCap-34 cells cultured in 24-well plates were washed with serum-free RPMI-1640 medium and were incubated either alone or with different anti-hepsin inhibitors (1 μM of anti-hepsin antibody Fab25/1 μM of KD1/1 μM of Ac-KQLR-cmk (‘KLQR” disclosed as SEQ ID NO:10)) in serum-free RPMI-1640 medium for 15 minutes at 37° C. prior to addition of 125I-labeled pro-MSP (25 μg/ml). After incubation for 3 hours at 37° C., aliquots were removed and analyzed by SDS-PAGE (4-20% gradient gel) (Invitrogen, Carlsbad, Calif.) followed by exposure to X-ray films.

[2] = system: bone marrow macrophages; test: Inhibition of nitric oxide (NO) synthesis in bone marrow macrophages; type: cell-based, mouse; settings: pro-MSP 10 ng/ml mixed with hepsin 1 nM and Fab25 500 nM, 24 hours, LPS
Procedure: Inhibition of NO synthesis by mature MSP: Bone marrow cells obtained from collected mouse femurs were pipetted to a single-cell suspension and then spun down. Red blood cells were lysed by incubation with erythrocyte lysis buffer for 5 minutes at room temperature. Cells were then suspended in macrophage differentiation medium (DMEM with glutamine containing 10% FBS, Pen/Strep and 50 ng/ml recombinant mCSF-1). Cells were then plated onto sterile 24-well non-tissue culture dishes. Medium was changed the next day and subsequently every 2 days. After 6 days in culture, the macrophages were mature and these mature cells were washed in serum-free DMEM and further incubated for 2 hours. Different reactions (total volume 300 μL) as indicated in the figure consisting of recombinant MSP (10 ng/ml), pro-MSP (10 ng/ml), hepsin (1 nM) and Fab25 (500 nM) were added to the respective wells and cultured for 24 hours at 37° C. in a tissue culture incubator. NO production was quantified using Griess reaction (Molecular Probes) according to manufacturer's recommendation.

[3] = system: peritoneal macrophages; test: Peritoneal macrophage chemotaxis assay; type: cell-based, mouse; settings: pre-treatment with inhibitor
Procedure: Peritoneal macrophage chemotaxis and morphology change assay: Murine peritoneal resident macrophages were obtained from C57BL/6 mice by washing the peritoneal cavity with 15 ml per mouse of serum-free RPMI-1640 medium. Cells were washed and resuspended in RPMI-1640 medium containing 25 mM Hepes at a concentration of 1×10^6 cells·mL^−1. The macrophage chemotaxis assay was performed using a QCM chemotaxis assay kit with a pore size of 5 μm (Millipore). One hundred microliters of the peritoneal macrophage suspension (i.e. 10^5 cells) were added to the upper wells of the Chemotaxis cells. The bottom wells were filled with RPMI-1640 medium containing purified pro-MSP either alone or hepsin-treated at 37 C for 2 hours. The recombinant active form of human MSP (R&D Systems) was used as a positive control. After incubation at 37 C for 4 hours, the cells on the upper surface of the membrane were wiped off with a cotton swab and the migrated cells were detached using detachment buffer as per manufacturer's recommendations. Aliquots from different wells were incubated with a mixture of lysis buffer and CYPRO dye for 15 minutes. Migration was quantified by measuring the fluorescence using a microplate reader (Spectramax-M5, Molecular devices, Sunnyvale, Calif.) at an excitation wavelength of 480 nm and emission wavelength of 520 nm.

T1 sequence (P05981 whole entry): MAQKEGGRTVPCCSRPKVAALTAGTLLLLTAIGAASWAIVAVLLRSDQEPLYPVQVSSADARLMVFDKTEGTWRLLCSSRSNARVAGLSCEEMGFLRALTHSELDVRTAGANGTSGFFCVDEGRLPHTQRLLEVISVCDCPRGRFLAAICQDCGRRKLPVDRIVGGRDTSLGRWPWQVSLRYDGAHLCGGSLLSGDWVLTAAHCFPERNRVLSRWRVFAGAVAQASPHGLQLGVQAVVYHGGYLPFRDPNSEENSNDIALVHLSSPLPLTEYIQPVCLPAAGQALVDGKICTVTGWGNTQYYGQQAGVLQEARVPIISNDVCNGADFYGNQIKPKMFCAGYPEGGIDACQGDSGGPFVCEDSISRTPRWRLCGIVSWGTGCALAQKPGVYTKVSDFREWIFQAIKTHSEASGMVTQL

blocking of pro-MSP proteolytic cleavage by cell surface hepsin [1]: effectively blocked
B1: Fab25: anti-hepsin antibody Fab that blocks hepsin activation of pro-MSP (antibody, V domains shown)
VH: EVQLVESGGGLVQPGGSLRLSCAASGFNFSYSYMHWVRQAPGKGLEWVASIYSYYGSTYYADSVKGRFTISADTSKNTAYLQMNSLRAEDTAVYYCARSDSWSYKSGYTQKIYSKGLDYWGQGTLVTVSS
VL: DIQMTQSPSSLSASVGDRVTITCRASQSVSSAVAWYQQKPGKAPKLLIYSASSKGVPSRFSGSRSGTDFTLTISSLQPEDFATYYCQQYYSSYYLLTFGQGTKVEIK
effect of anti-hepsin antibody on attenuation of NO production by hepsin-activated MSP [2]: did not inhibit robust production of nitric oxide
effect of anti-hepsin antibody on attenuation of NO production by hepsin-activated MSP ([2]; listed as anti-hepsin antibody): completely inhibited
effect of anti-hepsin inhibitor pre-treatment on migration of macrophages induced by hepsin-treated pro-MSP [3]: marked reduction
